Reference: patent publication US10117953B2, “Antibody drug conjugates” (Novartis AG, priority 2013, dated 2018)

Columns and labels:
Uke-1 cells = experiment: ADCC activity in vitro (Calcein release, NK3.3 effector cells); format: cell-based, human; conditions: effector to target ratio 20 to 1
Experimental: In brief, Uke-1 cells were stained with Calcein acetoxy-methyl ester (Calcein-AM; Sigma-Aldrich catalog #17783-5MG, St. Louis, Mo.), washed twice, pipetted into a 96-well microtiterplate (96 well, U-bottomed, clear plastic; Corning Costar, catalog #650 160, Tewksbury, Mass.) at a concentration of 5000 cells per well and pre-incubated for 10 min with a serial dilution of the above mentioned antibodies and proteins (from 50,000 to 0.003 μg per ml) before adding the effector NK3.3 cells for 1 hour in an effector to target ratio of 20 to 1. In order to calculate the antibody specific lysis of the target cells, a parallel incubation of target cells only without antibody or effector cells served as a baseline and negative control, whereas the positive control or maximal lysis or hundred percent specific lysis was determined by lysis of target cells only with a 1% Triton-X 100 solution. […] Following a co-incubation of target and effector cells, the microtiterplate was centrifuged and an aliquot of the supernatant fluid was transferred to another microtiterplate (96 well, flat-bottomed, black with clear bottom; Corning Costar, catalog #3904, Tewksbury, Mass.) and the concentration of free Calcein in solution was determined with a fluorescence counter (Victor 3® multilabel counter, Perkin Elmer, Waltham, Mass.).

[1] = biological target: T1, cKIT extra-cellular domain (SEQ ID NO:160) (Homo sapiens, UniProt P10721); experiment: Epitope mapping by deuterium exchange mass spectrometry (HDx-MS); format: binding; conditions: Region 1 residues 109-119, Region 2 residues 185-196
T1 construct: LENGTH: 503 amino acids; made in house; host or cells: HEK293 derived cell lines (293FS), transient transfection
Experimental: In these experiments, the deuterium uptake of cKIT extra-cellular domain (SEQ ID NO:160, see below) was measured in the absence and presence of a therapeutic mAb, 9P3. Regions in cKIT that show a decrease in deuterium uptake upon binding of the antibody are likely to be involved in the epitope; however, due to the nature of the measurement it is also possible to detect changes remote from the direct binding site (allosteric effects). Usually, the regions that have the greatest amount of protection are involved in direct binding although this may not always be the case. In order to delineate direct binding events from allosteric effects orthogonal measurements (e. g. X-ray crystallography, alanine mutagenesis) are necessary.
The cKIT epitope mapping experiments are performed on a Waters Synapt® G2 HDx-MS platform, which includes LEAP® robot system, nanoACQUITY® UPLC System, and Synapt® G2 mass spectrometer. In this method, triplicate control experiments are carried out as follows. 300 pmol (1.4 mg/ml) of cKIT antigen is diluted into 110 ul of 95% deuterated PBS buffer (pH 7.4) and incubates at room temperature on a bench rotator for 25 minutes (% D=85.5%). Deuterium exchange is quenched by 1:1 dilution with cold quench buffer (6M Urea and 1M TCEP pH=2.5) on ice for 5 min. […] The sample is analyzed using the same on-line pepsin digestion/LC-MS setup as the control experiment.

[2] = tested on: GIST T1 subcutaneous tumor xenograft; experiment: Efficacy of murine 9P3 ADCs, MCC-DM1 vs SPDB-DM4; format: in vivo, mouse; conditions: single i.v. dose 10 mg/kg, unconjugated antibody

T1 sequence (P10721 with tags, fused parts or gaps isoform P10721-2): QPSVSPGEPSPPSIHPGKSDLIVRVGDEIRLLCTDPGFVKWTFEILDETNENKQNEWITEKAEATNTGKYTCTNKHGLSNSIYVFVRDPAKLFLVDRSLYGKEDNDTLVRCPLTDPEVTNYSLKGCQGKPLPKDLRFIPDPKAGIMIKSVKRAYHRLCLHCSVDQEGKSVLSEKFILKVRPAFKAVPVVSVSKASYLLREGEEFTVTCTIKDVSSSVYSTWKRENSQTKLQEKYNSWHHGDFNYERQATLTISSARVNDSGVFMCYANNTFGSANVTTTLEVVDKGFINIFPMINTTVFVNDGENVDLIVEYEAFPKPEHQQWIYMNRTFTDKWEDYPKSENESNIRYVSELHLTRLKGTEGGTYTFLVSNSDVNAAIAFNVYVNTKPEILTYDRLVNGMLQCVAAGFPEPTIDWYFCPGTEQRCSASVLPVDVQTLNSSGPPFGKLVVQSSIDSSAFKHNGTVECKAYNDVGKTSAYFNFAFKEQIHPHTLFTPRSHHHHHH

MabCampath [reference compound]
ADCC (Uke-1 cells): mediated ADCC killing of the target cells

B1: 9P3: hybridoma derived anti-cKIT antibody; VH SEQ ID NO.9, VL SEQ ID NO.18 (antibody, V domains shown)
VH: EVRLVESEGGLVQPRSSMKLSCTASGFTFSDYYMAWVRQVPEKGLEWVANINYDGSSTYYLDSLKSRFIISRDNAKNILYLQMSSLKSEDTATYYCARGDYYGTTYWYFDVWGTGTTVTVSS
VL: DIQMTQTTSSLSASLGDRVTISCRASQDISNYLNWYQQKPDGTVKLLIYYTSRLQSGVPSRFSGSGSGTDYSLTISNLEQEDIATYFCQQGKKLWSFGGGTKLEIKR
epitope (regions protected from deuterium exchange) [1]: discontinuous epitope that is remote from the SCF binding sites
antitumor efficacy [2]: Neither the control non-specific IgG1 ADCs nor the unconjugated 9P3 were efficacious
